± gives the standard deviation of the averaged measurements.
Test system: ATP
Test: switch fluorescence ratio, 500 uM ATP over buffer (Cy3 cluster intensity, sum of 5 cycles each) (fold (ratio)); higher = stronger signal-on switching upon ATP binding; sequences stand for … in TCGTCGGCAGCGTCAGATGTGTATAAGAGACAGTTTTTTTTTTTTTTTTTTTTTTTTT…TC
Conditions: aptamer strand: ATP DNA aptamer (quencher-CACCTGGGGGAGTATTGCGGAGGAAGG + anchor), 100 nM annealed; ATP concentration: 500 uM
How it was run: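 After annealing to 100 nM quencher-labelled ATP aptamer, Cy3-labelled switching-strand clusters on a modified Illumina MiSeq flow-cell were imaged in selection buffer. A second image followed after 15 min with 500 uM ATP at 22 °C, and five such buffer/ATP cycles were done, each separated by NaOH stripping and re-annealing. The fluorescence ratio, averaged per switch-domain sequence, is summed target-cycle over summed buffer-cycle Cy3 intensity per cluster, with clusters outside 100-1000 RFU excluded.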
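Also: ATP exposure 15 min at 22 °C before imaging.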

Sequence | switch fluorescence ratio
GATGATGGGG | 0.998 ± 0.044
GATGATGGGT | 1 ± 0.023
GATGATTATG | 0.993 ± 0.011
GATGATTATT | 0.9856 ± 0.0018
GATGATTTGT | 1.02 ± 0.058
GATGCAAGTG | 1.07 ± 0.033
GATGCCTGGA | 1.02 ± 0.086
GATGCGATGT | 1.18 ± 0.036
GATGCGGGAG | 1.0227 ± 0.00027
GATGCTTATG | 1.01 ± 0.04
GATGGACTAA | 1.02 ± 0.018
GATGGAGATA | 0.936 ± 0.06
GATGGAGGGC | 1.05 ± 0.039
GATGGCGGGC | 1.01 ± 0.013
GATGGCTGCG | 1.04 ± 0.039
GATGGGAAAT | 1 ± 0.012
GATGGGAATG | 1.01 ± 0.013
GATGGGGCTC | 0.979 ± 0.024
GATGGGGTGT | 1.03 ± 0.027
GATGGTGTAA | 0.967 ± 0.028
GATGGTTATC | 0.961 ± 0.026
GATGGTTGGG | 0.998 ± 0.029
GATGGTTGTC | 1 ± 0.055

Sequence | switch fluorescence ratio
GATGTAACAC | 1.07 ± 0.013
GATGTACACG | 1.013 ± 0.003
GATGTCAACG | 0.973 ± 0.032
GATGTCGTAC | 0.99 ± 0.012
GATGTCGTGG | 1.015 ± 0.0089
GATGTCTCGA | 0.982 ± 0.079
GATGTGCACC | 0.983 ± 0.027
GATGTGGGCA | 1.05 ± 0.026
GATGTGGTGG | 0.99 ± 0.034
GATGTGTGCG | 0.897 ± 0.13
GATGTGTTTC | 1.03 ± 0.06
GATGTTATTC | 0.978 ± 0.011
GATGTTGTAC | 1.09 ± 0.079
GATGTTGTTA | 0.9647 ± 0.0086
GATGTTTGGA | 1.014 ± 0.0049
GATGTTTTCT | 0.982 ± 0.054
GATTAAAAAT | 1.0123 ± 0.00055
GATTAAAGGA | 1.01 ± 0.011
GATTAAAGGC | 1.01 ± 0.039
GATTAAAGGG | 1.001 ± 0.0085
GATTAACGTG | 0.9917 ± 0.0044
GATTAAGCGT | 0.984 ± 0.042
GATTAATTTT | 1.02 ± 0.043

Sequence | switch fluorescence ratio
GATTACAGGG | 0.957 ± 0.038
GATTACTTCA | 1.065 ± 0.0071
GATTAGGAGT | 0.985 ± 0.014
GATTAGGCGG | 0.982 ± 0.066
GATTAGGCTC | 1.03 ± 0.082
GATTATAGGT | 1.01 ± 0.015
GATTATGGCG | 1.047 ± 0.0054
GATTATTCGT | 0.99 ± 0.028
GATTATTGTA | 0.9762 ± 0.0045
GATTCAGGAG | 1 ± 0.032
GATTCAGGGT | 1 ± 0.024
GATTCCGAGC | 1.44 ± 0.53
GATTCGCCTG | 0.99 ± 0.016
GATTCGGGCG | 1 ± 0.069
GATTCGGGGT | 1 ± 0.017
GATTCGTGGC | 0.906 ± 0.14
GATTCTCCGT | 1.16 ± 0.016
GATTCTGGCA | 0.9715 ± 0.0057
GATTCTTTTC | 0.991 ± 0.014
GATTGACAAT | 1.03 ± 0.031
GATTGAGAGT | 1.019 ± 0.0087
GATTGAGGTC | 0.989 ± 0.037
GATTGATGTG | 0.995 ± 0.037

Sequence | switch fluorescence ratio
GATTGATTTT | 1.02 ± 0.044
GATTGCCGAT | 1 ± 0.034
GATTGCCGGT | 1.01 ± 0.015
GATTGGAGCA | 1.02 ± 0.034
GATTGGGGGT | 0.982 ± 0.03
GATTGGGTAC | 1.03 ± 0.025
GATTGGTAAT | 0.996 ± 0.028
GATTGGTGAG | 1.001 ± 0.0046
GATTGGTGGG | 1.003 ± 0.0041
GATTGGTGTG | 0.997 ± 0.024
GATTGGTTAT | 0.962 ± 0.029
GATTGTAATA | 1.01 ± 0.034
GATTGTAGTT | 0.9586 ± 0.0034
GATTGTGAT | 1.01 ± 0.04
GATTGTTCTC | 0.981 ± 0.011
GATTGTTGGA | 1.02 ± 0.037
GATTGTTTGT | 1.03 ± 0.067
GATTGTTTTG | 1.01 ± 0.034
GATTTACGTG | 1.02 ± 0.012
GATTTAGGCA | 0.986 ± 0.015
GATTTAGGTT | 0.999 ± 0.015
GATTTATAAT | 1.014 ± 0.0029
GATTTCCAGG | 1.2 ± 0.024

Sequence | switch fluorescence ratio
GATTTCCGTG | 0.98686 ± 0.00065
GATTTCGATT | 0.969 ± 0.012
GATTTCTGCT | 0.974 ± 0.021
GATTTGCAGA | 1 ± 0.024
GATTTGCCGG | 0.995 ± 0.013
GATTTGCCTG | 0.968 ± 0.036
GATTTGGGAC | 1.03 ± 0.05
GATTTGGGGA | 0.988 ± 0.028
GATTTGGTGT | 1.03 ± 0.057
GATTTGTGCA | 0.9952 ± 0.0014
GATTTTACTT | 1.03 ± 0.015
GATTTTGCCA | 0.9675 ± 0.0045
GATTTTGGCC | 0.959 ± 0.037
GATTTTGGTT | 0.998 ± 0.014
GATTTTGTAC | 1.012 ± 0.0043
GATTTTTAGC | 1 ± 0.065
GATTTTTGGT | 0.995 ± 0.028
GATTTTTTGT | 0.99 ± 0.028
GATTTTTTTC | 0.98 ± 0.05
GCAAAAATGG | 1.02 ± 0.038
GCAAAACGTA | 1.012 ± 0.009
GCAAAAGGTT | 1.01 ± 0.022
GCAAAATCTG | 1.04 ± 0.06

Sequence | switch fluorescence ratio
GCAAACTAGG | 1.11 ± 0.17
GCAAACTCTG | 1.12 ± 0.15
GCAAATGGGA | 1.05 ± 0.017
GCAAATGGGG | 1.02 ± 0.033
GCAAATGTAT | 1.004 ± 0.0037
GCAACAATGG | 1.08 ± 0.02
GCAACATTTT | 1.01 ± 0.043
GCAACGTCAA | 1.07 ± 0.076
GCAACGTTCC | 1.96 ± 1.4
GCAAGAACTA | 1.042 ± 0.0016
GCAAGATCGC | 1.09 ± 0.02
GCAAGCGGGA | 1.07 ± 0.079
GCAAGGAGGG | 1.05 ± 0.14
GCAAGGGGTT | 1 ± 0.063
GCAAGGTAAA | 1.01 ± 0.037
GCAAGTAGAG | 1.0067 ± 0.001
GCAAGTCTGA | 1.03 ± 0.019
GCAAGTTGAT | 0.96591 ± 0.00067
GCAAGTTTCA | 0.996 ± 0.034
GCAATAATCG | 1.98 ± 1.4
GCAATAATTA | 1.1 ± 0.046
GCAATATGTA | 1.62 ± 0.11
GCAATGAACC | 1.84 ± 0.078

Sequence | switch fluorescence ratio
GCAATGGGTG | 1.35 ± 0.027
GCAATTCAGA | 1.064 ± 0.0099
GCAATTGGGA | 1.05 ± 0.017
GCAATTGTTT | 1.02 ± 0.039
GCAATTTTAG | 1.03 ± 0.035
GCAATTTTTT | 1.03 ± 0.032
GCACAAGTTG | 1.02 ± 0.019
GCACACGGGG | 1.01 ± 0.07
GCACATGAAC | 1.1 ± 0.022
GCACGAGGAA | 1.043 ± 0.0063
GCACGCGAAG | 1.04 ± 0.024
GCACGGAGGG | 1.01 ± 0.023
GCACGGGACT | 1.184 ± 0.011
GCACGGGAGG | 1.01 ± 0.032
GCACGGGGCG | 1.03 ± 0.034
GCACGTGACC | 1.47 ± 0.048
GCACGTGCGT | 1.02 ± 0.035
GCACTGGTGG | 1.02 ± 0.032
GCACTGTGGG | 1 ± 0.016

— the supplement of paper PMC10126150
